Molecular target: the molecule itself
Experiment: cryo-EM structure

B1: C331S variant of polycystin-2 (residues 53 to 792) (natural protein, human, UniProt Q13563 53-792, looked up)
chain: EIEMQRIRQAAARDPPAGAAASPSPPLSSCSRQAWSRDNPGFEAEEEEEEVEGEEGGMVVEMDVEWRPGSRRSAASSAVSSVGARSRGLGGYHGAGHPSGRRRRREDQGPPCPSPVGGGDPLHRHLPLEGQPPRVAWAERLVRGLRGLWGTRLMEESSTNREKYLKSVLRELVTYLLFLIVLCILTYGMMSSNVYYYTRMMSQLFLDTPVSKTEKTNFKTLSSMEDFWKFTEGSLLDGLYWKMQPSNQTEADNRSFIFYENLLLGVPRIRQLRVRNGSSSIPQDLRDEIKECYDVYSVSSEDRAPFGPRNGTAWIYTSEKDLNGSSHWGIIATYSGAGYYLDLSRTREETAAQVASLKKNVWLDRGTRATFIDFSVYNANINLFCVVRLLVEFPATGGVIPSWQFQPLKLIRYVTTFDFFLAACEIIFCFFIFYYVVEEILEIRIHKLHYFRSFWNCLDVVIVVLSVVAIGINIYRTSNVEVLLQFLEDQNTFPNFEHLAYWQIQFNNIAAVTVFFVWIKLFKFINFNRTMSQLSTTMSRCAKDLFGFAIMFFIIFLAYAQLAYLVFGTQVDDFSTFQECIFTQFRIILGDINFAEIEEANRVLGPIYFTTFVFFMFFILLNMFLAIINDTYSEVKSDLAQQKAEMELSDLIRKGYHKALVKLKLKKNTVDDISESLRQGGGKLNFDELRQDLKGKGHTDAEIEAIFTKYDQDGDQELTEHEHQQMRDDLEKEREDLDLD
stoichiometry N: 4

Source: paper PMC7229662 (Proceedings of the National Academy of Sciences of the …, 2020)
